Assays:
[1] = molecular target: T1, MLO-Y4 cell surface proteins (Mus musculus, UniProt P09671); assay: Crosslinking/co-immunoprecipitation/mass spectrometry (TMT quantitative proteomics) to identify irisin receptors; assay type: binding; settings: co-precipitated protein Sod2 (SODM_MOUSE)
T1 construct: endogenous in cells; host or cells: MLO-Y4
T1 sequence (P09671 25-222): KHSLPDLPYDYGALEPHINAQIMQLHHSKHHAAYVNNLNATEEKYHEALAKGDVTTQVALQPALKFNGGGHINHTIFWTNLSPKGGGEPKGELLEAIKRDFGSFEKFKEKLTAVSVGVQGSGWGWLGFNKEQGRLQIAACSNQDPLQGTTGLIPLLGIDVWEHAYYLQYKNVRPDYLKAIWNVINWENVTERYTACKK
Method: (§1) MLO-Y4 cells were seeded on 30×150 mm type-I collagen coated dishes as described in cell culture experiment. At 60% cell density, medium was switched to FreeStyle™ 293 Expression medium. After 4 hours incubation, the cells were chilled on ice for 10 minutes, followed by treatment of 10 nM his-tag irisin or his-tag adipsin for 20 minutes. The cells were then incubated with 1.5 mM DTSSP for 30 minutes on ice to do cross-linking, after washing with 15 ml cold PBS twice. The cross-linking was quenched by addition of a final concentration of 20 mM Tris-pH 7.5. The cells were then harvested and homogenized in 1 ml RIPA buffer containing proteaseinhibitor cocktailand phosphatase-inhibitor cocktail. Whole-cell lysates were homogenized by 10 times passages through a 22G needle fitted to a 3 ml syringe. Homogenized samples were rotated gently in cold room for 20 minutes followed by 15,000×g centrifugation for 10 minutes. After addition of a final concentration of 10 mM imidazole, supernatants were incubated with 100 μl Ni-NTA agarose for 1 hour. After centrifugation at 500×g for 1 minute, the supernatants were aspirated and 1 ml cold RIPA buffer containing 10 mM imidazole were added to the agarose. After 10 minutes rotation in cold room, the supernatants were aspirated and 1 ml cold RIPA buffer containing 30 mM imidazole were added to the agarose. After repeating the washing 3 times, 0.8 ml RIPA buffer containing 250 mM imidazole was added and the agarose was gently rotated in a cold room for 20 minutes. After centrifugation at 1000×g for 2 minutes, the supernatants were transferred to 1.5 ml tube and incubated with 100 μl 0.2% sodium deoxycholate and 100 μl 10% trichloroacetic acid in ice for 1 hour. After centrifugation at 12,000×g for 10 minutes at 4° C., the supernatants were removed and 1 ml cold acetone was added to the pellets followed by vortexing for 10 seconds. After one more washing with cold acetone, the pellets were dried at 37° C., and 39 μl PBS and 13 μl 4×NuPAGE LDS were added to the pellets with a final concentration of 5 mM DTT. Solubilized proteins were incubated at 65° C. for 20 minutes followed by incubation with a final concentration of 14 mM iodoacetamide for 45 minutes in the dark. 38 μl samples were loaded to 4-12% gradient SDS-PAGE for separation followed by Coomassie Blue staining. The gels were submitted to quantitative proteomics.
(§2) For in-gel digestions, gels were stained with Coomassie Blue and were excised into 8 equal segments for control and irisin lanes. Gel pieces were destained and dehydrated with 100% acetonitrile, vacuumed dried, and digested in 25 mM HEPES (pH 8.5) with 500 ng sequencing grade trypsin (Promega) and incubated for an overnight at 37° C. (Shevchenko et al. (1996) Anal. Chem. 68:850-858). Digests were treated with 1% formic acid and purified using C18 Stage-Tips as previously described (Rappsilber et al. (2007) Nat. Protoc. 2:1896-1906). Peptides were eluted with 70% acetonitrile and 1% formic acid, then dried using a speedvac. Isobaric labeling of digested peptides was accomplished using 6-plex tandem mass tag (TMT) reagents (Thermo Fisher Scientific, Rockford, Ill.). Reagents, 5.0 mg, were dissolved in 252 μl acetonitrile (ACN) and 5 μl of the solution was added to the digested peptides dissolved in 25 μl of 200 mM HEPES, pH 8.5. After 1 hour at room temperature, the reaction was quenched by adding 1 μl of 5% hydroxylamine. Labeled peptides were combined and acidified prior to C18 Stage-Tips desalting.
(§3) All LC-MS/MS experiments were performed on an Orbitrap Fusion™ Lumos mass spectrometer (Thermo Fisher Scientific, San Jose, Calif., USA) coupled with a Proxeon EASY-nLC™ 1200 LC pump (Thermo Fisher Scientific). Peptides were separated on a 100 μm inner diameter microcapillary column packed with 35 cm of Accucore™ C18 resin (1.8 μm, 100 Å, Thermo Fisher Scientific). […]

[2] = molecular target: T2, MLO-Y4 cell surface proteins (Mus musculus, UniProt Q8BJQ9); assay: as above; assay type: binding; settings: co-precipitated protein Csgalnact1 (CGAT1_MOUSE)
T2 construct: endogenous in cells; host or cells: MLO-Y4
T2 sequence (Q8BJQ9 1-530): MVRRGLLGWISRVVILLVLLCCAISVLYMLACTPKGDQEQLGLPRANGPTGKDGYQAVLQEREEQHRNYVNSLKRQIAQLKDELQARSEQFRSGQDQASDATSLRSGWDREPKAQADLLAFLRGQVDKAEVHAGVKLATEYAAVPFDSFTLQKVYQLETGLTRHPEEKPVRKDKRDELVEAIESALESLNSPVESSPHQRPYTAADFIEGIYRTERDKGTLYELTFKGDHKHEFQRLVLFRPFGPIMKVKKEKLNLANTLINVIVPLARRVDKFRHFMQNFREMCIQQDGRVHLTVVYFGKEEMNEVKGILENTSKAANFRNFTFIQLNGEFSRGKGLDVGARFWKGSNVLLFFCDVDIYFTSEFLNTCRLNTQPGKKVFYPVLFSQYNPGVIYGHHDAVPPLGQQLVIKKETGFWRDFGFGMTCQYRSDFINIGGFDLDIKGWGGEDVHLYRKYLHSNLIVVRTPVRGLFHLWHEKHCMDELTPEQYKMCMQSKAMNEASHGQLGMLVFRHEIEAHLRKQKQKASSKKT
Method: as §1, §2, §3

TMT signal-to-noise ratio [1]: 1031.93
TMT signal-to-noise ratio [2]: 2426.62
Substance: adipsin

From patent US20210063414A1, “METHODS FOR PREVENTING AND/OR TREATING BONE LOSS CONDITIONS BY MODULATING IRISIN” (Dana-Farber Cancer Institute, Inc., priority 2018, published 2021)
